The chains are these.
B1: CPEB3 Ribozyme (parent)
chain: GGGGGCCACAGCAGAAGCGUUCACGUCGCGGCCCCUGUCAGAUUCUGGUGAAUCUGCGAAUUCUGCUGU

The variants in the data set derive from B1. Nature of the data set: self-cleavage, relative activity (ratio to wild type); higher = more cleavage; co-transcriptional.
On to C9U U61C, for which the self-cleavage was determined as 0.866. As for C9G U69C, the figure is 1.07; as for C9A U49G, 1.04; as for C9A U49A, 1.03.

As to A10G C29A, the self-cleavage turned out to be 0.324. As for A10G C29U, the figure is 0.126. The result for C9G C45U reads 0.998; that for C9G C45A, 1.01; that for C9G G19U, 0.643. The result for C9G G19C reads 0.133; that for C9G G14A, 0.783; that for A10C U53G, 0.927. Turning to A10U C12U, the self-cleavage was 0.913. Take A10U C12A: the self-cleavage stood at 0.707. On to A10G G58U, for which the self-cleavage was determined as 0.947. As for A10U G25A, the figure is 0.171. Consider A10C U44G, for which the self-cleavage is 1.02. The result for A10C G56A reads 0.989.

In the case of A10C G56U, the self-cleavage turned out to be 0.936.

As to A10U C29A, the self-cleavage is 0.722.

C9U C22G: the self-cleavage was 0.21. On to C9U C22A, for which the self-cleavage came to 0.226. As for A10G C32U, the figure is 0.939; as for A10G C32A, 0.847.

On to C9U G41C, for which the self-cleavage turned out to be 0.949. As to C9U G41U, the self-cleavage came to 0.974. In the case of A10G G28C, the self-cleavage came out at 0.169.

Take C9U U36A: the self-cleavage was determined as 0.312.

As for C9U U36C, the self-cleavage worked out at 1.02. The result for C9A U55G reads 0.874. The result for C9A U55C reads 0.982.

C9A U43C: the self-cleavage was determined as 1.03. As for A10U G11A, the figure is 0.873. The result for A10U G11C reads 0.892; that for A10U A13G, 0.56; that for A10U A13U, 0.701. The result for C9U U44G reads 1.06.

C9G U46C: the self-cleavage was determined as 0.937. As for C9G U46G, the figure is 1; as for A10U A51U, 1.04. On to A10U A51G, for which the self-cleavage turned out to be 0.955. Consider C9U C27G, for which the self-cleavage stood at 0.203. For the variant C9U, the self-cleavage was 1.01. As for C9G, the figure is 1.01; as for C9U C34U, 1.01. With A10G A40U, the self-cleavage was 0.301. The result for A10G A60C reads 0.176; that for A10G A60U, 0.221; that for C9U G56U, 0.971.

Regarding A10G A13U, the self-cleavage was determined as 0.13. A10G A13G: the self-cleavage came out at 0.233. As for A10G A52G, the figure is 1.01; as for C9G G37A, 0.371.

As to C9G G37C, the self-cleavage amounted to 0.289.

On to A10C U64C, for which the self-cleavage stood at 0.769. As for A10C U64A, the figure is 0.779; as for A10G U53A, 0.651. As for A10G U53C, the figure is 0.333; as for A10C C39U, 0.877. As for C9G C33A, the figure is 1.03; as for C9G G50U, 1.02. On to C9G G50A, for which the self-cleavage came to 1.01. The result for A10C U49G reads 1.04. Turning to A10G C35U, the self-cleavage was found to be 0.892.

Take A10G C35A: the self-cleavage worked out at 0.197. As for A10G C35G, the figure is 0.496. As for A10C C24G, the figure is 0.478. The result for C9U G47U reads 1.02. For C9U G47C, the self-cleavage came to 1.06. In the case of C9G U67A, the self-cleavage was 0.959. The result for C9G U38C reads 0.997; that for A10G U67C, 0.967; that for C9A G65A, 0.955. Regarding C9A G65U, the self-cleavage turned out to be 0.844. For the variant C9U U43G, the self-cleavage was found to be 0.967. As for C9U C66G, the figure is 0.921. As for A10G G25U, the figure is 0.132; as for A10G G25A, 0.0673; as for C9A G50A, 1.02. As for C9A G50C, the figure is 1.03. With C9A G50U, the self-cleavage was 0.999. As for A10G C22A, the figure is 0.141; as for A10C C22A, 0.161; as for C9A U44G, 1.01. The result for C9U G19C reads 0.143. The result for C9A U69A reads 1.06. C9G U61G: the self-cleavage came to 0.958. In the case of A10G G30A, the self-cleavage is 0.96. As for A10G G30U, the figure is 0.704; as for C9G C27G, 0.246; as for C9G C27A, 0.754.

Take A10G U55G: the self-cleavage is 0.36. For the variant A10U C35A, the self-cleavage was 0.245. For A10U C35G, the self-cleavage was found to be 0.64.

Consider C9A G58C, for which the self-cleavage came out at 1.04. As for C9A G58U, the figure is 1.04. As for A10C U67A, the figure is 1.02; as for A10G C45G, 0.839; as for C9G G48U, 1.01. As for A10U C57A, the figure is 0.273. Turning to A10C G25U, the self-cleavage came out at 0.0666. As for C9G U53A, the figure is 0.98; as for C9G A13U, 0.837; as for A10G A23C, 0.939. The result for C9U U26G reads 0.942; that for C9U U26A, 0.929. As for A10C A23G, the self-cleavage came out at 0.94.

Turning to C9G C35A, the self-cleavage is 0.267. In the case of C9G U20C, the self-cleavage amounted to 0.254. Consider A10U G14U, for which the self-cleavage amounted to 0.654.

On to C9U G25A, for which the self-cleavage is 0.306. For the variant A10U C34U, the self-cleavage amounted to 0.985. Regarding A10G U20A, the self-cleavage was 0.0584. As for A10C U55G, the figure is 0.799. In the case of C9G A60G, the self-cleavage came to 0.952.

Take A10C G37A: the self-cleavage stood at 0.242. The result for A10C U46C reads 0.98; that for C9G G11C, 0.721. As for C9G G11U, the figure is 0.922; as for A10U G48A, 1.02; as for A10U G48C, 1.03. As for C9U G58U, the figure is 1.02; as for C9U G58A, 1.03.

In the case of C9U U53C, the self-cleavage worked out at 0.931. The result for A10U G37C reads 0.3.

Take A10C U36A: the self-cleavage stood at 0.226. As for A10C U36C, the figure is 0.966; as for A10C U36G, 0.246; as for C9G U55A, 0.929. The result for A10C G31C reads 0.233; that for A10U G56A, 1.01. The result for A10U G56U reads 0.984.

Take C9U A15G: the self-cleavage worked out at 1.05. As for C9U A15U, the figure is 0.931; as for A10C G41C, 0.798. As for A10C G41A, the figure is 0.824; as for A10C G41U, 0.826. As for A10C G48C, the figure is 0.992; as for A10C G48U, 1.02; as for C9U G28U, 0.169. As for A10G G50A, the self-cleavage amounted to 0.949. As for A10U G41C, the figure is 0.859; as for C9G A51C, 0.674.

In the case of A10C A42C, the self-cleavage worked out at 0.961. For A10C A42G, the self-cleavage is 0.896.

Take A10G G65U: the self-cleavage turned out to be 0.303. The result for A10G G65A reads 0.337; that for C9G G17U, 0.68. The result for C9G G17A reads 0.66; that for C9U A51U, 1. The result for C9U G48C reads 1.02; that for A10G C18A, 0.0954.

As for A10G C18G, the self-cleavage is 0.0572. Take A10G C18U: the self-cleavage is 0.264. As for C9U G50A, the figure is 1.02.

For A10C U38A, the self-cleavage came to 0.869. For A10C U38G, the self-cleavage came out at 0.248. As for A10C C54U, the figure is 1.02. On to A10C C54G, for which the self-cleavage amounted to 0.993. On to A10C C54A, for which the self-cleavage was 0.896.

A10C U62A: the self-cleavage was 0.926. As to A10U A16U, the self-cleavage is 0.877. As for A10U A16G, the figure is 0.924; as for A10U G30U, 0.733.

Regarding C9G C22A, the self-cleavage was found to be 0.189. The result for C9U A60U reads 0.538. The result for A10C G17U reads 0.464.

The record behind these values is the RNAGym collection of RNA variant scans (doi:10.7554/elife.80360).
